Here are results for four molecules from patent US7163921 (dated 2007).

One assay has as its target mu opioid receptor (human, UniProt P35372). The experiment in a line: competition, [3H]diprenorphine, 25C, pH 7.8.
The target in the next assay is nociceptin receptor (human, UniProt P41146). Description: competition, [3H]nociceptin, 25C, pH 7.8.

Numbered stars: 1 amine (or outer) side, 2 acyl side, 3 side chain; on linkers, the order of the positions; unused ones are H or OH. Square brackets hold non-standard residues; d marks the D form. * marks the point of attachment. X1 = N‑((R)-1-(2-naphthyl)ethyl)amide, C[C@@H](N*)c1ccc2ccccc2c1; 3,5‑dimethyl‑Tyr = Cc1cc(C[C@H](N[*:1])C(=O)[*:2])cc(C)c1O[*:3]; 6‑guanidinohexyl = N=C(N)NCCCCCC*

Chain of nociceptin receptor (P41146 whole entry): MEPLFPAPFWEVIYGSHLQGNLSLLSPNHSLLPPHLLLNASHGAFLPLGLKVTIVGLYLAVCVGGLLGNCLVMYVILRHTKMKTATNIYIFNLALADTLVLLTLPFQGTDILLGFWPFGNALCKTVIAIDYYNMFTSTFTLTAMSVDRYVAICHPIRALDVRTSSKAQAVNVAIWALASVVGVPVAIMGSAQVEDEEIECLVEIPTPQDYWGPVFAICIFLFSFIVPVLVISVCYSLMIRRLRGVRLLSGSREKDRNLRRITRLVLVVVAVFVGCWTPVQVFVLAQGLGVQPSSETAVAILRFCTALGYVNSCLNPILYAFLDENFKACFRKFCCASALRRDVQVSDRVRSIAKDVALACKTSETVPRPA
Chain of mu opioid receptor (P35372 whole entry): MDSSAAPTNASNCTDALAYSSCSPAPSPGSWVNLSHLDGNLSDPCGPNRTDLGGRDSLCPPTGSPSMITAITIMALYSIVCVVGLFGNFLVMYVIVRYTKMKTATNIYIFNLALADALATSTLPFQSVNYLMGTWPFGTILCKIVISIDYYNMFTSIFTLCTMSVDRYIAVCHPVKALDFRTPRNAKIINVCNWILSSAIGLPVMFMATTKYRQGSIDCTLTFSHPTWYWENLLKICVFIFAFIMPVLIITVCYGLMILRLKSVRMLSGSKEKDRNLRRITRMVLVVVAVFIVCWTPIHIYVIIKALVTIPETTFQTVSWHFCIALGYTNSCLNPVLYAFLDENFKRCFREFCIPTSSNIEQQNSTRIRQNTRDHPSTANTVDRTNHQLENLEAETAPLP

B1: Example 1 (N-α-6-guanidinohexyl-Tyr-Tyr-Arg-Trp-NH2) (peptide)
chain: {6‑guanidinohexyl}-YYRW-NH2
SMILES: N=C(N)NCCCCCCN[C@@H](Cc1ccc(O)cc1)C(=O)N[C@@H](Cc1ccc(O)cc1)C(=O)N[C@@H](CCCNC(=N)N)C(=O)N[C@@H](Cc1c[nH]c2ccccc12)C(N)=O
Usually Ki stands for a dissociation constant, usually derived from enzyme kinetics or from competition with a known ligand. Higher therefore signals a looser hold on the target. For the molecule B1, the results for the Ki with mu opioid receptor and with nociceptin receptor were 40 nM and 0.43 nM, respectively.

B2: Example 25 (N-α-6-guanidinohexyl-3,5-dimethyl-Tyr-Tyr-N-[(R)-1-(2-naphthyl)ethyl]-argininamide) (peptide)
chain: {6‑guanidinohexyl}-[3,5‑dimethyl‑Tyr]-Tyr-Arg-X1
SMILES: Cc1cc(C[C@H](NCCCCCCNC(=N)N)C(=O)N[C@@H](Cc2ccc(O)cc2)C(=O)N[C@@H](CCCNC(=N)N)C(=O)N[C@H](C)c2ccc3ccccc3c2)cc(C)c1O
For the molecule B2, the inhibitory constant (Ki) was 14 nM with mu opioid receptor and 0.9 nM with nociceptin receptor.

B3: Example 27 (N-α-6-guanidinohexyl-3,5-dimethyl-Tyr-3,5-dimethyl-Tyr-N-[(R)-1-(2-naphthyl)ethyl]-argininamide) (peptide)
chain: {6‑guanidinohexyl}-[3,5‑dimethyl‑Tyr]-[3,5‑dimethyl‑Tyr]-Arg-X1
SMILES: Cc1cc(C[C@H](NCCCCCCNC(=N)N)C(=O)N[C@@H](Cc2cc(C)c(O)c(C)c2)C(=O)N[C@@H](CCCNC(=N)N)C(=O)N[C@H](C)c2ccc3ccccc3c2)cc(C)c1O
Consider B3, for which the Ki was found to be 10 nM with mu opioid receptor and 0.6 nM with nociceptin receptor.

With {6‑guanidinopentyl}-Tyr-Tyr-Arg-X1 [Example 23 (N-α-6-guanidinopentyl-Tyr-Tyr-N-[(R)-1-(2-naphthyl)ethyl]-argininamide)], the Ki in the assay with mu opioid receptor came out at 59 nM; with nociceptin receptor, 1.8 nM.
